From the supplement of paper PMC10567573

B1: CHMP4C (parent)
chain: SSKSRAAPSPQEALVRLRETEEML

Variants of: B1
Assay: protein stability index of a GFP-peptide fusion (GPS, HEK-293T) (PSI 1-6); higher = more stable
Conditions: c terminus: a fixed tail appended
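Further: lentivirally expressed fusions sorted by FACS into six bins by GFP to DsRed ratio, PSI derived from sequencing read proportions per bin multiplied by bin number.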

Variant | protein stability index
SSKSRAAPSPQEAFVRLRETEEML | 4.77
SSKSRAAPSPQEARVRLRETEEML | 2.92
SSKSRAAPSPQEAYVRLRETEEML | 2.49
SSKSRAAPSPQEAWVRLRETEEML | 1.42
SSKSRAAPSPQEACVRLRETEEML | 2.06
SSKSRAAPSPQEADVRLRETEEML | 4.96
SSKSRAAPSPQEAKVRLRETEEML | 4.46
SSKSRAAPSPQEAIVRLRETEEML | 2.32
SSKSRAAPSPQEASVRLRETEEML | 4.33
SSKSRAAPSPQEAPVRLRETEEML | 5.2
SSKSRAAPSPQEAHVRLRETEEML | 4.46
SSKSRAAPSPQEAVVRLRETEEML | 3
SSKSRAAPSPQEATVRLRETEEML | 4.6
SSKSRAAPSPQEAAVRLRETEEML | 3.39
SSKSRAAPSPQEAMVRLRETEEML | 2.41
SSKSRAAPSPQEALVRLRETIEML | 2.83
SSKSRAAPSPQEALVRLRETWEML | 2.39
SSKSRAAPSPQEALVRLRETFEML | 3.21
SSKSRAAPSPQEALVRLRETDEML | 4
SSKSRAAPSPQEALVRLRETAEML | 4.28
SSKSRAAPSPQEALVRLRETYEML | 2.3
SSKSRAAPSPQEALVRLRETNEML | 4.49
SSKSRAAPSPQEALVRLRETTEML | 2.81
SSKSRAAPSPQEALVRLRETMEML | 4.23

Variant | protein stability index
SSKSRAAPSPQEALVRLRETQEML | 3.95
SSKSRAAPSPQEALVRLRETSEML | 4.09
SSKSRAAPSPQEALVRLRETGEML | 3.63
NSKSRAAPSPQEALVRLRETEEML | 2.38
VSKSRAAPSPQEALVRLRETEEML | 3.02
ESKSRAAPSPQEALVRLRETEEML | 1.3
HSKSRAAPSPQEALVRLRETEEML | 1.97
SSKSRYAPSPQEALVRLRETEEML | 4.65
SSKSRIAPSPQEALVRLRETEEML | 2.15
SSKSRNAPSPQEALVRLRETEEML | 1.61
SSKSRFAPSPQEALVRLRETEEML | 2.83
SSKSRRAPSPQEALVRLRETEEML | 1.96
SSKSRKAPSPQEALVRLRETEEML | 1.8
SSKSRDAPSPQEALVRLRETEEML | 1.81
SSKSRHAPSPQEALVRLRETEEML | 1.28
SSKSRAAPSPQEHLVRLRETEEML | 3.99
SSKSRAAPSPQEYLVRLRETEEML | 2.3
SSKSRAAPSPQECLVRLRETEEML | 1.82
SSKSRAAPSPQEGLVRLRETEEML | 3.34
SSKSRAAPSPQEKLVRLRETEEML | 4.47
SSKSRAAPSPQEWLVRLRETEEML | 3.33
SSKSRAAPSPQEQLVRLRETEEML | 4.8
SSKSRAAPSPQEDLVRLRETEEML | 5.58
SSKSRAAPSPQELLVRLRETEEML | 2.06

Variant | protein stability index
SSKSRAAVSPQEALVRLRETEEML | 4
SSKSRAALSPQEALVRLRETEEML | 2.46
SSKSRAANSPQEALVRLRETEEML | 2.54
SSKSRAACSPQEALVRLRETEEML | 1.87
SSKSRAAWSPQEALVRLRETEEML | 2.56
SSKSRAAQSPQEALVRLRETEEML | 1.95
SSKSRAAPSPQEALVRLQETEEML | 2.57
SSKSRAAPSPQEALVRLSETEEML | 2.17
SSKSRAAPSPQEALVRLAETEEML | 1.51
SSKSRAAPSPQEALVRLPETEEML | 5.12
SSKSRAAPSPQEALVRLLETEEML | 4.8
SSKSRAAPSPQEALVRLDETEEML | 5.46
SSKSRAAPSPQEALVRLYETEEML | 2.45
SSKSRAAPSPQEALVRLHETEEML | 5.68
SSKSRAAPSPQEALVRLKETEEML | 2.15
SSKSRAAPSPQEALVRLNETEEML | 1.8
SSKSRAAPSPQEALVRLEETEEML | 4.89
SSKSRAAPSPQEALVRLFETEEML | 1.83
SSKSRAAPSPQEALVRGRETEEML | 5.31
SSKSRAAPSPQEALVRNRETEEML | 4.59
SSKSRAAPSPQEALVRERETEEML | 5.68
SSKSRAAPSPQEALVRFRETEEML | 4.28
SSKSRAAPSPQEALVRSRETEEML | 5.01
SSKSRAAPSPQEALVRHRETEEML | 4.79

Variant | protein stability index
SSKSRAAPSPQEALVRIRETEEML | 1.76
SSKSRAAPSPQEALVRTRETEEML | 5.6
SSKSRAAPSPQEALVRARETEEML | 4.71
SSKSRAAPSPQEALVRRRETEEML | 5.53
SSKSRAAPSPQEALVRYRETEEML | 4.4
SSKSRAAPSPQEALVRLRETEPML | 4.66
SSKSRAAPSPQEALVRLRETEDML | 2.14
SSKSRAAPSPQEALVRLRETEGML | 2.44
SSKSRAAPSPQEALVRLRETEMML | 1.82
SSKSRAAPSPQEALVRLRETEIML | 2.92
SSKSRAAPSPQEALVRLRETEVML | 2.84
SSKSRAAPSPQEALVRLRETEFML | 2.05
SSKSRAAPSPQEALVRLRETEQML | 2.31
SSKSRAAPSPQEALVRLRETETML | 3.01
SSKSRAAPSPQEALVRLRETEWML | 1.71
SSKSRAAPVPQEALVRLRETEEML | 3.85
SSKSRAAPAPQEALVRLRETEEML | 2.38
SSKSRAAPTPQEALVRLRETEEML | 1.94
SSKSRAAPCPQEALVRLRETEEML | 1.54
SSKSRAAPDPQEALVRLRETEEML | 1.51
SSKSRAAPIPQEALVRLRETEEML | 3.22
SSKSRAAPRPQEALVRLRETEEML | 3.19
SSKSRAAPSPCEALVRLRETEEML | 1.78
SSKSRAAPSPPEALVRLRETEEML | 3.7

Variant | protein stability index
SSKSRAAPSPFEALVRLRETEEML | 1.01
SSKSRAAPSPTEALVRLRETEEML | 1.16
SSKSRAAPSPVEALVRLRETEEML | 3.06
SSKSRAAPSPAEALVRLRETEEML | 2.68
SSKSRAAPSPKEALVRLRETEEML | 1.9
SSKSLAAPSPQEALVRLRETEEML | 1.48
SSKSDAAPSPQEALVRLRETEEML | 2.36
SSKSGAAPSPQEALVRLRETEEML | 1.3
SSKSTAAPSPQEALVRLRETEEML | 2.17
SSKSCAAPSPQEALVRLRETEEML | 1.78
SSKSRAAPSPQEALVRLRETEEKL | 2.15
SSKSRAAPSPQEALVRLRETEEAL | 2.07
SSKSRAAPSPQEALVRLRETEEPL | 4.44
SSKSRAAPSPQEALVRLRETEETL | 3.55
SSKSRAAPSPQEALVRLRETEEFL | 2.24
SSKSRAAPSPQEALVRLRETEEQL | 2.38
SSKSRAAPSPQEALVRLRETEEEL | 2.08
SSKSRAAPSPQEALVRLRETEEHL | 4.34
SSKSRAAPSPQEALVRLRETEEDL | 4.26
SSKSRAAPSPQEALVRLRETEESL | 3.95
SSASRAAPSPQEALVRLRETEEML | 1.97
SSTSRAAPSPQEALVRLRETEEML | 1.79
SSDSRAAPSPQEALVRLRETEEML | 3.17
SSWSRAAPSPQEALVRLRETEEML | 1.74

Variant | protein stability index
SSKSRAAPSPQEALVRLREVEEML | 3.14
SSKSRAAPSPQEALVRLRECEEML | 4.19
SSKSRAAPSPQEALVRLREPEEML | 5.12
SSKSRAAPSPQEALVRLREQEEML | 4.83
SSKSRAAPSPQEALVRLREWEEML | 3.45
SSKSRAAPSPQEALVRLREIEEML | 3.27
SSKSRAAPSPQEALVRLREDEEML | 2.08
SSKSRAKPSPQEALVRLRETEEML | 1.45
SSKSRAQPSPQEALVRLRETEEML | 2.32
SSKSRAPPSPQEALVRLRETEEML | 1.03
SSKSRAVPSPQEALVRLRETEEML | 2.56
SSKSRATPSPQEALVRLRETEEML | 4.48
SSKSRAMPSPQEALVRLRETEEML | 3.21
SSKDRAAPSPQEALVRLRETEEML | 1.4
SSKTRAAPSPQEALVRLRETEEML | 2.58
SSKSRAAPSPQHALVRLRETEEML | 3.06
SSKSRAAPSPQVALVRLRETEEML | 2.81
SSKSRAAPSPQLALVRLRETEEML | 3.27
SSKSRAAPSPQGALVRLRETEEML | 2.23
SSKSRAAPSPQFALVRLRETEEML | 2.75
SSKSRAAPSPQSALVRLRETEEML | 2.06
SSKSRAAPSPQWALVRLRETEEML | 2.67
SSKSRAAPSPQCALVRLRETEEML | 2.96
SSKSRAAPSPQMALVRLRETEEML | 2.05

Variant | protein stability index
SSKSRAAPSPQKALVRLRETEEML | 4.3
SSKSRAAPSQQEALVRLRETEEML | 4.58
SSKSRAAPSWQEALVRLRETEEML | 1.67
SSKSRAAPSTQEALVRLRETEEML | 4.26
SSKSRAAPSEQEALVRLRETEEML | 3.41
SSKSRAAPSYQEALVRLRETEEML | 2.99
SSKSRAAPSSQEALVRLRETEEML | 3.85
SSKSRAAPSNQEALVRLRETEEML | 4.79
SSKSRAAPSHQEALVRLRETEEML | 4.21
SSKSRAAPSRQEALVRLRETEEML | 4.01
SSKSRAAPSCQEALVRLRETEEML | 3.05
SSKSRAAPSKQEALVRLRETEEML | 4.6
SSKSRAAPSVQEALVRLRETEEML | 1.81
SSKSRAAPSPQEALVWLRETEEML | 2.45
SSKSRAAPSPQEALVGLRETEEML | 3.79
SSKSRAAPSPQEALVELRETEEML | 2.24
SSKSRAAPSPQEALVDLRETEEML | 1.98
SSKSRAAPSPQEALVHLRETEEML | 1.63
SSKSRAAPSPQEALVQLRETEEML | 2.49
SSKSRAAPSPQEALVTLRETEEML | 4.39
SSKSRAAPSPQEALVYLRETEEML | 2.22
SSKSRAAPSPQEALVRLRRTEEML | 3.52
SSKSRAAPSPQEALVRLRATEEML | 2.6
SSKSRAAPSPQEALVRLRWTEEML | 2.36

Variant | protein stability index
SSKSRAAPSPQEALVRLRITEEML | 4.1
SSKSRAAPSPQEALVRLRNTEEML | 2.27
SSKSRAAPSPQEALVRLRSTEEML | 3.01
SSKSRAAPSPQEALVRLRPTEEML | 4.63
SSKSRAAPSPQEALVRLRGTEEML | 2.44
SSKSRAAPSPQEALVRLRHTEEML | 2.9
SSKSRAAPSPQEALVRLRYTEEML | 1.97
SSKSRAAPSPQEALVRLRCTEEML | 2.66
SSKSRAAPSPQEALVRLRKTEEML | 3.19
SSKSRAAPSPQEALVRLRQTEEML | 1
STKSRAAPSPQEALVRLRETEEML | 1.78
SCKSRAAPSPQEALVRLRETEEML | 2.38
SEKSRAAPSPQEALVRLRETEEML | 1.86
SAKSRAAPSPQEALVRLRETEEML | 2.44
SSKSRAAPSPQEALQRLRETEEML | 3.07
SSKSRAAPSPQEALKRLRETEEML | 2.48
SSKSRAAPSPQEALSRLRETEEML | 2.18
SSKSRAAPSPQEALDRLRETEEML | 1.85
SSKSRAAPSPQEALPRLRETEEML | 4.34
SSKSRAAPSPQEALMRLRETEEML | 2.17
